Results from patent US20260242478A1 (published 2026).
Where no end group is shown, it is not given here.

B1: Phage-1712 (peptide)
peptide: IRCVGEGHDLVCIF
modifications: cysteine pairing not given here; also: displayed on phage as pIII fusion, pIII sequence, linker and fusion order not given here
notes: not shown: pIII coat protein of the bacteriophage to which the peptide is fused
B2: Phage-1710 (peptide)
peptide: SIPCIPRDWLCPIK
modifications: cysteine pairing not given here; also: displayed as fusion to phage pIII, linker and order of fusion not given here
notes: as for B1
B3: Phage-1719 (peptide)
peptide: DCFYAADIHWNYCN
modifications: cysteine pairing not given here; also: displayed on phage as pIII fusion, pIII sequence, linker and fusion order not given here
notes: as for B1
B4: Phage-1708 (peptide)
peptide: IAVLCQPNWMCAGF
modifications: cysteine pairing not given here; also: fused to phage pIII (clonal phage display)
notes: also called Peptide-180; not shown: pIII coat protein of the bacteriophage to which the peptide is fused
B5: Phage-1721 (peptide)
peptide: SCFSFARLEVVPCD
modifications: cysteine pairing not given here; also: displayed on phage as pIII fusion, pIII sequence, linker and fusion order not given here
notes: as for B1
B6: Phage-1722 (peptide)
peptide: TCLRFADLAIIHCD
modifications: cysteine pairing not given here; also: displayed on phage as pIII fusion, pIII sequence, linker and fusion order not given here
notes: also called Peptide-160; not shown: pIII coat protein of the bacteriophage to which the peptide is fused
B7: Phage-1715 (peptide)
peptide: ILCGLYEALVSECG
modifications: cysteine pairing not given here; also: displayed on phage as pIII fusion, pIII sequence, linker and fusion order not given here
notes: as for B1
B8: Phage-1718 (peptide)
peptide: SCGWLRGEEFGWWC
modifications: cysteine pairing not given here; also: displayed on phage as pIII fusion, pIII sequence, linker and fusion order not given here
notes: also called Peptide-190; not shown: pIII coat protein of the bacteriophage to which the peptide is fused
B9: Phage-1707 (peptide)
peptide: LMKWCTPRWMCAAE
modifications: cysteine pairing not given here; also: fused to phage pIII (clonal phage display)
notes: as for B1
B10: Phage-1709 (peptide)
peptide: PELRCVPFWMCSFN
modifications: cysteine pairing not given here; also: fused to phage pIII (clonal phage display)
notes: as for B1
B11: Phage-1717 (peptide)
peptide: HCLGPALGPVDGDC
modifications: cysteine pairing not given here; also: displayed on phage as pIII fusion, pIII sequence, linker and fusion order not given here
notes: as for B1
B12: Phage-1716 (peptide)
peptide: IECAYMTDQRFWCW
modifications: cysteine pairing not given here; also: fused to phage pIII (clonal phage display)
notes: as for B1
B13: Phage-1714 (peptide)
peptide: FVCWTFGEHIKVCR
modifications: cysteine pairing not given here; also: displayed on phage as pIII fusion, pIII sequence, linker and fusion order not given here
notes: as for B1
B14: Phage-1711 (peptide)
peptide: MEYCSFHRFTCVLW
modifications: cysteine pairing not given here; also: displayed on phage as pIII fusion, pIII sequence, linker and fusion order not given here
notes: as for B1

Tests used:
[1] = molecular target: T1, Anti-PSMA Fab (SEQ ID NOs: 19, 20); test: phage binding ELISA; biotinylated anti-PSMA Fab on neutravidin plate, clonal phage supernatant, anti-M13-HRP detection
T1 construct: Used biotinylated and captured on neutravidin coated plates; also called 006 PSMA Fab
Protocol: (§1) Clonal phage were harvested as crude supernatants and screened via standard ELISAs. […] Prior to the addition of clonal phage. wells were incubated with blocking buffer and PSMA antigen or blocking buffer alone. Without washing or aspirating, clonal phage supernatants were then added to the wells and incubated for a short time. Wells were then washed followed by detection of bound phage using a horse radish conjugated anti-M13 antibody.

[2] = molecular target: T1, Anti-PSMA Fab (SEQ ID NOs: 19, 20); test: phage binding ELISA; biotinylated anti-PSMA Fab on neutravidin plate, wells pre-incubated with PSMA antigen as competitor, anti-M13-HRP detection
Protocol: as §1

[3] = molecular target: T2, Anti-CD28 Fab (SEQ ID NOs: 696, 697); test: phage binding ELISA on plate-captured anti-CD28 Fab pre-incubated with CD28 antigen (competitor: CD28), anti-M13 HRP detection
T2 construct: In the phage ELISA the Fab was biotinylated and captured on neutravidin coated plates
T2 sequence (VH, as listed by the source, chain 1 of 2): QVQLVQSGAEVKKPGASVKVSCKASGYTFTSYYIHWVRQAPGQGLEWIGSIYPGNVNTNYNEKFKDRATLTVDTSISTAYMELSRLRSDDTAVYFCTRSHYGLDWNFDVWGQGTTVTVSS
T2 sequence (VL, as listed by the source, chain 2 of 2): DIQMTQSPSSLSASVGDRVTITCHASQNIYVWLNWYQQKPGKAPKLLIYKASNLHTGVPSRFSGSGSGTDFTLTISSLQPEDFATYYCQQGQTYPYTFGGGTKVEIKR
Protocol: (§2) Clonal phage were harvested as crude supematants and screened via standard ELISAs. […] Prior to the addition of clonal phage, wells were incubated with blocking buffer and CD28 antigen or blocking buffer alone. Without washing or aspirating, clonal phage supematants were then added to the wells and incubated for a short time. Wells were then washed followed by detection of bound phage using a horse radish conjugated anti-M13 antibody.

[4] = molecular target: T2, Anti-CD28 Fab (SEQ ID NOs: 696, 697); test: phage binding ELISA; biotinylated anti-CD28 Fab on neutravidin plate, clonal phage supernatant, anti-M13 HRP detection;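 note: wells pretreated with blocking buffer, either plus or minus CD28 antigen, then given crude phage supernatant briefly without washing in between, then washed before anti-M13 HRP readout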
Protocol: as §2

[5] = molecular target: T3, Anti-CD28 Fab (SEQ ID NOs: 696, 697); test: phage binding ELISA; biotinylated Fab on neutravidin plate, anti-M13 HRP detection
T3 construct: In the phage ELISA the Fab was biotinylated and captured on neutravidin coated plates
T3 sequence (VH, as listed by the source, chain 1 of 2): as the sequence (VH, as listed by the source, chain 1 of 2) above
T3 sequence (VL, as listed by the source, chain 2 of 2): as the sequence (VL, as listed by the source, chain 2 of 2) above
Protocol: as §2

[6] = molecular target: T3, Anti-CD28 Fab (SEQ ID NOs: 696, 697); test: phage binding ELISA on captured Fab; CD28 antigen as competitor
Protocol: as §2

| Binder | Anti-PSMA Fab (SEQ ID NOs: 19, 20) signal [1] | Anti-PSMA Fab signal in the presence of PSMA [2] | Phage binding ELISA, Anti-CD28 Fab signal in the presence of CD28 [3] | Phage binding ELISA, Anti-CD28 Fab signal [4] | other results |
| --- | --- | --- | --- | --- | --- |
| B1 | 2.36 | 0.072 | – | – | – |
| TCAAGATYDWPSCL [Phage-1694] | – | – | 0.08 | 0.71 | – |
| DCWWDSPYHWRVCL [Phage-1703] | – | – | 0.07 | 0.57 | – |
| ECSAGAMWGWPACF [Phage-1693] | – | – | 0.09 | 0.73 | – |
| TCSAGAHYPWPMCL (tested as crude phage supernatant) [Phage-1674] | – | – | – | – | Anti-CD28 Fab (SEQ ID NOs: 696, 697) signal [5]: 0.93; Anti-CD28 Fab signal in the presence of CD28 [6]: 0.06 |
| VCAAGAAYPWPACL (tested as crude phage supernatant) [Phage-1673] | – | – | – | – | Anti-CD28 Fab (SEQ ID NOs: 696, 697) signal [5]: 0.93; Anti-CD28 Fab signal in the presence of CD28 [6]: 0.07 |
| B2 | 1.89 | 0.096 | – | – | – |
| B3 | 1.88 | 1.15 | – | – | – |
| TCSAGATYGWPACF [Phage-1691] | – | – | 0.07 | 0.76 | – |
| WCSAVFSYQWPVCL [Phage-1701] | – | – | 0.06 | 0.61 | – |
| PCSAGATYAWPYCL [Phage-1696] | – | – | 0.09 | 0.71 | – |
| B4 | 0.997 | 0.077 | – | – | – |
| SCAAGAHWSWPACL (tested as crude phage supernatant) [Phage-1670] | – | – | – | – | Anti-CD28 Fab (SEQ ID NOs: 696, 697) signal [5]: 0.97; Anti-CD28 Fab signal in the presence of CD28 [6]: 0.06 |
| B5 | 1.26 | 0.0555 | – | – | – |
| MCAAGAMYNWPLCL (tested as crude phage supernatant) [Phage-1671] | – | – | – | – | Anti-CD28 Fab (SEQ ID NOs: 696, 697) signal [5]: 0.95; Anti-CD28 Fab signal in the presence of CD28 [6]: 0.09 |
| B6 | 1.82 | 0.0697 | – | – | – |
| B7 | 2.49 | 0.063 | – | – | – |

| Binder | Anti-PSMA Fab (SEQ ID NOs: 19, 20) signal [1] | Anti-PSMA Fab signal in the presence of PSMA [2] | Phage binding ELISA, Anti-CD28 Fab signal in the presence of CD28 [3] | Phage binding ELISA, Anti-CD28 Fab signal [4] | other results |
| --- | --- | --- | --- | --- | --- |
| B8 | 0.648 | 0.071 | – | – | – |
| B9 | 1.04 | 0.232 | – | – | – |
| GCAAGAEYNWPTCL [Phage-1698] | – | – | 0.64 | 0.69 | – |
| TCAAGAVWQWPTCF [Phage-1695] | – | – | 0.06 | 0.71 | – |
| SCAAGASYSWPLCF (tested as crude phage supernatant) [Phage-1672] | – | – | – | – | Anti-CD28 Fab (SEQ ID NOs: 696, 697) signal [5]: 0.95; Anti-CD28 Fab signal in the presence of CD28 [6]: 0.08 |
| TCAAGAAYTWPHCF [Phage-1699] | – | – | 0.11 | 0.69 | – |
| ICAAGAGWPWPWCL [Phage-1692] | – | – | 0.1 | 0.75 | – |
| TCSAGATYKWPMCF [Phage-1690] | – | – | 0.07 | 0.77 | – |
| SCSAGASYAWPMCI [Phage-1702] | – | – | 0.06 | 0.59 | – |
| TCAAGAQLEWPWCF [Phage-1697] | – | – | 0.07 | 0.7 | – |
| TCSAGAQWEWPACL [Phage-1700] | – | – | 0.08 | 0.67 | – |
| B10 | 0.622 | 0.064 | – | – | – |
| B11 | 2.33 | 0.076 | – | – | – |
| B12 | 1.93 | 0.066 | – | – | – |
| B13 | 2.51 | 0.205 | – | – | – |
| B14 | 1.88 | 0.117 | – | – | – |
